Data reported in US20230357367A1 (GENERATE BIOMEDICINES, published 2023).
Where two headings read alike, the source gives them in different places.

How the values were obtained:
[1] = biological target: T1, WIV1 Spike on pseudovirus (WIV1 (bat SARS-like coronavirus)); experiment: cell-based or functional assay
[2] = biological target: T2, SARS-CoV-1 Spike on pseudovirus (SARS-CoV-1, UniProt P59594 14-1255); experiment: cell-based or functional assay
[3] = biological target: SARS-CoV-1 spike trimer (recombinant) (SARS-CoV-1, UniProt P59594 14-1195)
[4] = biological target: T1, WIV1 Spike on pseudovirus; experiment: cell-based or functional assay; remark: listed apart in the source
[5] = biological target: T2, SARS-CoV-1 Spike on pseudovirus; experiment: cell-based or functional assay; remark: listed apart in the source
[6] = biological target: T1, WIV1 Spike on pseudovirus; experiment: cell-based or functional assay; remark: listed apart in the source
[7] = biological target: T2, SARS-CoV-1 Spike on pseudovirus; experiment: cell-based or functional assay; remark: listed apart in the source

B1: AB-1 (antibody, V domains shown)
VH: EVQLVESGAEVKKPGESLKISCKGSGYTFTRYWIGWVRQMPGKGLEWMGIIYPGDSDVRYSPSFQGHVTISADKSISTAYLQWNSLKASDTAMYYCARLPQYCSKGVCYRWFDPWGQGTLVTVSS
VL: EIVLTQSPSSVSASVGDRVTITCRASQGISSWLAWYQQKPGKAPKLLIYAASSLQSGVPSRFSGSGSGTDFTLTISSLQPEDFATYYCQQGHSFPYTFGQGTNLEIK
- IC50, pseudovirus neutralization [1]: 0.0139 µg/mL
- IC50, pseudovirus neutralization [2]: 0.009 µg/mL
- EC50 [3]: 0.065 µg/mL
- IC50, pseudovirus neutralization [4]: 0.069 µg/mL
- IC50, pseudovirus neutralization [5]: 0.04 µg/mL
- % neutralization at 4.5 µg/ml, pseudovirus [6]: 101%
- % neutralization at 4.5 µg/ml, pseudovirus [7]: 99%
